Experimental data from publication PMC4169579 (2014).
Positions of bridges follow the written chain, without caps; N, C: chain ends. No end group written: not given here.

Biological target: Prostate-specific antigen (PSA or kallikrein-related peptidase-3, KLK3), major form of active PSA (isoform … (human, UniProt P07288 25-261))
Assay: SPR

Sequence of Prostate-specific antigen (PSA or kallikrein-related peptidase-3, KLK3), major form of active PSA (isoform … (P07288 25-261): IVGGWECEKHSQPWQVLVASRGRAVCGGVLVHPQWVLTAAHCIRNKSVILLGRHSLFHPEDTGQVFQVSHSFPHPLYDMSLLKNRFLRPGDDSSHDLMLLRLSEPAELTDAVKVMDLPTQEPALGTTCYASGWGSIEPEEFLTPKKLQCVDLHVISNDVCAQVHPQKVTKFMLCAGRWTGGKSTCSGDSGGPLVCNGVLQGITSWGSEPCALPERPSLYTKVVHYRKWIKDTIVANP

Kd: 56.1 µM
B1: 12-amino acid cyclic peptide B2 (without C-terminal amidation) (peptide)
peptide: CVFAHNYDYLVC-OH
modifications: disulfide 1-12; N-terminus assumed
SMILES: CC(C)C[C@@H]1NC(=O)[C@H](Cc2ccc(O)cc2)NC(=O)[C@H](CC(=O)O)NC(=O)[C@H](Cc2ccc(O)cc2)NC(=O)[C@H](CC(N)=O)NC(=O)[C@H](Cc2c[nH]cn2)NC(=O)[C@H](C)NC(=O)[C@H](Cc2ccccc2)NC(=O)[C@H](C(C)C)NC(=O)[C@@H](N)CSSC[C@@H](C(=O)O)NC(=O)[C@H](C(C)C)NC1=O
